# Columns and labels:
# HeLa Kyoto [1] = experiment: solubility change mitosis vs G1/S (difference of NP-40 vs SDS log2 ratios) (log2 ratio difference); higher = more soluble in mitosis
# HeLa Kyoto [2] = experiment: melting temperature (median over replicates), in situ; higher = more thermally stable
# HeLa Kyoto [3] = experiment: thermal stability score vs G1/S (z-score of summed log2 fold changes over temperatures); higher = more thermally stable than in G1/S
# HeLa Kyoto [4] = experiment: solubility in G1/S (NP-40 vs SDS abundance) (log2 ratio); higher = more soluble; conditions: cell cycle stage: G1/S
# [5] = cell cycle stage: early G1 (4.5 h after nocodazole release)
# 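Wherever melting temperature (median over replicates), in situ is given: HeLa Kyoto cells synchronized by double thymidine or nocodazole block, proteins quantified by TMT10plex mass spectrometry, three independent biological replicates.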
# 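Wherever solubility change mitosis vs G1/S (difference of NP-40 vs SDS log2 ratios) is given: synchronized HeLa Kyoto cells (double thymidine block for G1/S, nocodazole release for mitosis), protein amounts in NP-40 versus SDS lysates quantified by mass spectrometry, three biological replicates.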
# 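Wherever solubility in G1/S (NP-40 vs SDS abundance) is given: HeLa Kyoto cells arrested at G1/S by double thymidine block, proteins quantified by TMT10plex mass spectrometry in mild NP-40 versus SDS extracts, three biological replicates.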
# 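Wherever thermal stability score vs G1/S (z-score of summed log2 fold changes over temperatures) is given: synchronized HeLa Kyoto cells, proteins quantified by TMT10plex mass spectrometry, three biological replicates, mitosis taken 0.5 h after nocodazole release, G1/S directly after double thymidine block.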
Sequence,solubility change mitosis (log2) (HeLa Kyoto [1]),melting temperature (HeLa Kyoto [2]; cell cycle stage: mitosis),thermal stability score (HeLa Kyoto [3]; [5]),thermal stability score (HeLa Kyoto [3]; cell cycle stage: mitosis),solubility in G1/S (log2) (HeLa Kyoto [4]),melting temperature (HeLa Kyoto [2]; cell cycle stage: G1/S)
MAKPSHSSYVLQQLNNQREWGFLCDCCIAIDDIYFQAHKAVLAACSSYFRMFFMNHQHSTAQLNLSNMKISAECFDLILQFMYLGKIMTAPSSFEQFKVAMNYLQLYNVPDCLEDIQDADCSSSKCSSSASSKQNSKMIFGVRMYEDTVARNGNEANRWCAEPSSTVNTPHNREADEESLQLGNFPEPLFDVCKKSSVSKLSTPKERVSRRFGRSFTCDSCGFGFSCEKLLDEHVLTCTNRHLYQNTRSYHRIVDIRDGKDSNIKAEFGEKDSSKTFSAQTDKYRGDTSQAADDSASTTGSRKSSTVESEIASEEKSRAAERKRIIIKMEPEDIPTDELKDFNIIKVTDKDCNESTDNDELEDEPEEPFYRYYVEEDVSIKKSGRKTLKPRMSVSADERGGLENMRPPNNSSPVQEDAENASCELCGLTITEEDLSSHYLAKHIENICACGKCGQILVKGRQLQEHAQRCGEPQDLTMNGLGNTEEKMDLEENPDEQSEIRDMFVEMLDDFRDNHYQINSIQKKQLFKHSACPFRCPNCGQRFETENLVVEHMSSCLDQDMFKSAIMEENERDHRRKHFCNLCGKGFYQRCHLREHYTVHTKEKQFVCQTCGKQFLRERQLRLHNDMHKGMARYVCSICDQGNFRKHDHVRHMISHLSAGETICQVCFQIFPNNEQLEQHMDVHLYTCGICGAKFNLRKDMRSHYNAKHLKRT [ZBTB1],-0.0122,51 °C,2,3.65,-0.369,
MSGLRVYSTSVTGSREIKSQQSEVTRILDGKRIQYQLVDISQDNALRDEMRALAGNPKATPPQIVNGDQYCGDYELFVEAVEQNTLQEFLKLA [SH3BGRL3],-0.132,52.6 °C,-2.26,-3.11,-0.259,54.2 °C
MSWLSSSQGVVLTAYHPSGKDQTVGNSHAKAGEEATSSRRYGQYTMNQESTTIKVMEKPPFDRSISQDSLDELSMEDYWIELENIKKSSENSQEDQEVVVVKEPDEGELEEEWLKEAGLSNLFGESAGDPQESIVFLSTLTRTQAAAVQKRVETVSQTLRKKNKQYQIPDVRDIFAQQRESKETAPGGTESQSLRTNENKYQGRDDEASNLVGEEKLIPPEETPAPETDINLEVSFAEQALNQKESSKEKIQKSKGDDATLPSFRLPKDKTGTTRIGDLAPQDMKKVCHLALIELTALYDVLGIELKQQKAVKIKTKDSGLFCVPLTALLEQDQRKVPGMRIPLIFQKLISRIEERGLETEGLLRIPGAAIRIKNLCQELEAKFYEGTFNWESVKQHDAASLLKLFIRELPQPLLSVEYLKAFQAVQNLPTKKQQLQALNLLVILLPDANRDTLKALLEFLQRVIDNKEKNKMTVMNVAMVMAPNLFMCHALGLKSSEQREFVMAAGTANTMHLLIKYQKLLWTIPKFIVNQVRKQNTENHKKDKRAMKKLLKKMAYDREKYEKQDKSTNDADVPQGVIRVQAPHLSKVSMAIQLTEELKASDVLARFLSQESGVAQTLKKGEVFLYEIGGNIGERCLDDDTYMKDLYQLNPNAEWVIKSKPL [ARHGAP18],-0.128,50 °C,0.338,0.693,0.188,50 °C
MIPNGYLMFEDENFIESSVAKLNALRKSGQFCDVRLQVCGHEMLAHRAVLACCSPYLFEIFNSDSDPHGISHVKFDDLNPEAVEVLLNYAYTAQLKADKELVKDVYSAAKKLKMDRVKQVCGDYLLSRMDVTSCISYRNFASCMGDSRLLNKVDAYIQEHLLQISEEEEFLKLPRLKLEVMLEDNVCLPSNGKLYTKVINWVQRSIWENGDSLEELMEEVQTLYYSADHKLLDGNLLDGQAEVFGSDDDHIQFVQKKPPRENGHKQISSSSTGCLSSPNATVQSPKHEWKIVASEKTSNNTYLCLAVLDGIFCVIFLHGRNSPQSSPTSTPKLSKSLSFEMQQDELIEKPMSPMQYARSGLGTAEMNGKLIAAGGYNREECLRTVECYNPHTDHWSFLAPMRTPRARFQMAVLMGQLYVVGGSNGHSDDLSCGEMYDSNIDDWIPVPELRTNRCNAGVCALNGKLYIVGGSDPYGQKGLKNCDVFDPVTKLWTSCAPLNIRRHQSAVCELGGYLYIIGGAESWNCLNTVERYNPENNTWTLIAPMNVARRGAGVAVLNGKLFVCGGFDGSHAISCVEMYDPTRNEWKMMGNMTSPRSNAGIATVGNTIYAVGGFDGNEFLNTVEVYNLESNEWSPYTKIFQF [IVNS1ABP],-0.0597,49.2 °C,-2.78,-1.82,-0.0792,50.7 °C
MESSPFNRRQWTSLSLRVTAKELSLVNKNKSSAIVEIFSKYQKAAEETNMEKKRSNTENLSQHFRKGTLTVLKKKWENPGLGAESHTDSLRNSSTEIRHRADHPPAEVTSHAASGAKADQEEQIHPRSRLRSPPEALVQGRYPHIKDGEDLKDHSTESKKMENCLGESRHEVEKSEISENTDASGKIEKYNVPLNRLKMMFEKGEPTQTKILRAQSRSASGRKISENSYSLDDLEIGPGQLSSSTFDSEKNESRRNLELPRLSETSIKDRMAKYQAAVSKQSSSTNYTNELKASGGEIKIHKMEQKENVPPGPEVCITHQEGEKISANENSLAVRSTPAEDDSRDSQVKSEVQQPVHPKPLSPDSRASSLSESSPPKAMKKFQAPARETCVECQKTVYPMERLLANQQVFHISCFRCSYCNNKLSLGTYASLHGRIYCKPHFNQLFKSKGNYDEGFGHRPHKDLWASKNENEEILERPAQLANARETPHSPGVEDAPIAKVGVLAASMEAKASSQQEKEDKPAETKKLRIAWPPPTELGSSGSALEEGIKMSKPKWPPEDEISKPEVPEDVDLDLKKLRRSSSLKERSRPFTVAASFQSTSVKSPKTVSPPIRKGWSMSEQSEESVGGRVAERKQVENAKASKKNGNVGKTTWQNKESKGETGKRSKEGHSLEMENENLVENGADSDEDDNSFLKQQSPQEPKSLNWSSFVDNTFAEEFTTQNQKSQDVELWEGEVVKELSVEEQIKRNRYYDEDEDEE [LIMA1],0.392,54.3 °C,-0.923,-3.34,-1.45,57.9 °C
MGCIKSKGKDSLSDDGVDLKTQPVRNTERTIYVRDPTSNKQQRPVPESQLLPGQRFQTKDPEEQGDIVVALYPYDGIHPDDLSFKKGEKMKVLEEHGEWWKAKSLLTKKEGFIPSNYVAKLNTLETEEWFFKDITRKDAERQLLAPGNSAGAFLIRESETLKGSFSLSVRDFDPVHGDVIKHYKIRSLDNGGYYISPRITFPCISDMIKHYQKQADGLCRRLEKACISPKPQKPWDKDAWEIPRESIKLVKRLGAGQFGEVWMGYYNNSTKVAVKTLKPGTMSVQAFLEEANLMKTLQHDKLVRLYAVVTREEPIYIITEYMAKGSLLDFLKSDEGGKVLLPKLIDFSAQIAEGMAYIERKNYIHRDLRAANVLVSESLMCKIADFGLARVIEDNEYTAREGAKFPIKWTAPEAINFGCFTIKSDVWSFGILLYEIVTYGKIPYPGRTNADVMTALSQGYRMPRVENCPDELYDIMKMCWKEKAEERPTFDYLQSVLDDFYTATEGQYQQQP [LYN],-0.0796,50.7 °C,1.11,0.805,-0.416,51.1 °C
MGVQPPNFSWVLPGRLAGLALPRLPAHYQFLLDLGVRHLVSLTERGPPHSDSCPGLTLHRLRIPDFCPPAPDQIDRFVQIVDEANARGEAVGVHCALGFGRTGTMLACYLVKERGLAAGDAIAEIRRLRPGSIETYEQEKAVFQFYQRTK [DUSP23],-0.112,52.9 °C,0.571,-0.468,0.00547,52.5 °C
MRWGHHLPRASWGSGFRRALQRPDDRIPFLIHWSWPLQGERPFGPPRAFIRHHGSSVDSAPPPGRHGRLFPSASATEAIQRHRRNLAEWFSRLPREERQFGPTFALDTVHVDPVIRESTPDELLRPPAELALEHQPPQAGLPPLALSQLFNPDACGRRVQTVVLYGTVGTGKSTLVRKMVLDWCYGRLPAFELLIPFSCEDLSSLGPAPASLCQLVAQRYTPLKEVLPLMAAAGSHLLFVLHGLEHLNLDFRLAGTGLCSDPEEPQEPAAIIVNLLRKYMLPQASILVTTRPSAIGRIPSKYVGRYGEICGFSDTNLQKLYFQLRLNQPYCGYAVGGSGVSATPAQRDHLVQMLSRNLEGHHQIAAACFLPSYCWLVCATLHFLHAPTPAGQTLTSIYTSFLRLNFSGETLDSTDPSNLSLMAYAARTMGKLAYEGVSSRKTYFSEEDVCGCLEAGIRTEEEFQLLHIFRRDALRFFLAPCVEPGRAGTFVFTVPAMQEYLAALYIVLGLRKTTLQKVGKEVAELVGRVGEDVSLVLGIMAKLLPLRALPLLFNLIKVVPRVFGRMVGKSREAVAQAMVLEMFREEDYYNDDVLDQMGASILGVEGPRRHPDEPPEDEVFELFPMFMGGLLSAHNRAVLAQLGCPIKNLDALENAQAIKKKLGKLGRQVLPPSELLDHLFFHYEFQNQRFSAEVLSSLRQLNLAGVRMTPVKCTVVAAVLGSGRHALDEVNLASCQLDPAGLRTLLPVFLRARKLGLQLNSLGPEACKDLRDLLLHDQCQITTLRLSNNPLTAAGVAVLMEGLAGNTSVTHLSLLHTGLGDEGLELLAAQLDRNRQLQELNVAYNGAGDTAALALARAAREHPSLELLHLYFNELSSEGRQVLRDLGGAAEGGARVVVSLTEGTAVSEYWSVILSEVQRNLNSWDRARVQRHLELLLRDLEDSRGATLNPWRKAQLLRVEGEVRALLEQLGSSGS [NLRX1],0.0927,54.7 °C,-0.577,-2.13,-0.273,54.3 °C
MTDSKYFTTTKKGEIFELKAELNSDKKEKKKEAVKKVIASMTVGKDVSALFPDVVNCMQTDNLELKKLVYLYLMNYAKSQPDMAIMAVNTFVKDCEDPNPLIRALAVRTMGCIRVDKITEYLCEPLRKCLKDEDPYVRKTAAVCVAKLHDINAQLVEDQGFLDTLKDLISDSNPMVVANAVAALSEIAESHPSSNLLDLNPQSINKLLTALNECTEWGQIFILDCLANYMPKDDREAQSICERVTPRLSHANSAVVLSAVKVLMKFMEMLSKDLDYYGTLLKKLAPPLVTLLSAEPELQYVALRNINLIVQKRPEILKHEMKVFFVKYNDPIYVKLEKLDIMIRLASQANIAQVLAELKEYATEVDVDFVRKAVRAIGRCAIKVEQSAERCVSTLLDLIQTKVNYVVQEAIVVIKDIFRKYPNKYESVIATLCENLDSLDEPEARAAMIWIVGEYAERIDNADELLESFLEGFHDESTQVQLQLLTAIVKLFLKKPTETQELVQQVLSLATQDSDNPDLRDRGYIYWRLLSTDPVAAKEVVLAEKPLISEETDLIEPTLLDELICYIGTLASVYHKPPSAFVEGGRGVVHKSLPPRTASSESAESPETAPTGAPPGEQPDVIPAQGDLLGDLLNLDLGPPVSGPPLATSSVQMGAVDLLGGGLDSLMGDEPEGIGGTNFVAPPTAAVPANLGAPIGSGLSDLFDLTSGVGTLSGSYVAPKAVWLPAMKAKGLEISGTFTRQVGSISMDLQLTNKALQVMTDFAIQFNRNSFGLAPAAPLQVHAPLSPNQTVEISLPLSTVGSVMKMEPLNNLQVAVKNNIDVFYFSTLYPLHILFVEDGKMDRQMFLATWKDIPNENEAQFQIRDCPLNAEAASSKLQSSNIFTVAKRNVEGQDMLYQSLKLTNGIWVLAELRIQPGNPSCTDLELSLKCRAPEVSQHVYQAYETILKN [AP1B1],-0.225,51.1 °C,-0.616,0.595,0.297,51.7 °C
MLNVPSQSFPAPRSQQRVASGGRSKVPLKQGRSLMDWIRLTKSGKDLTGLKGRLIEVTEEELKKHNKKDDCWICIRGFVYNVSPYMEYHPGGEDELMRAAGSDGTELFDQVHRWVNYESMLKECLVGRMAIKPAVLKDYREEEKKVLNGMLPKSQVTDTLAKEGPSYPSYDWFQTDSLVTIAIYTKQKDINLDSIIVDHQNDSFRAETIIKDCLYLIHIGLSHEVQEDFSVRVVESVGKIEIVLQKKENTSWDFLGHPLKNHNSLIPRKDTGLYYRKCQLISKEDVTHDTRLFCLMLPPSTHLQVPIGQHVYLKLPITGTEIVKPYTPVSGSLLSEFKEPVLPNNKYIYFLIKIYPTGLFTPELDRLQIGDFVSVSSPEGNFKISKFQELEDLFLLAAGTGFTPMVKILNYALTDIPSLRKVKLMFFNKTEDDIIWRSQLEKLAFKDKRLDVEFVLSAPISEWNGKQGHISPALLSEFLKRNLDKSKVLVCICGPVPFTEQGVRLLHDLNFSKNEIHSFTA [CYB5R4],-0.0937,53.7 °C,-0.0239,-0.629,0.0176,53.6 °C
